Assays:
[1] = biological target: T1, recombinant human PCSK9-His protein (Immunogen A) (human, UniProt Q8NBP7 31-692, limits assumed, biotinylated in the ELISA assays); assay: ELISA; antibody 0 nM
T1 construct: also called hPCSK9-His; His-tagged hPCSK9; not shown: His tag

[2] = biological target: T2, recombinant cyno monkey PCSK9 protein (cyno monkey, UniProt A8T666 31-692 (rhesus entry), limits assumed, biotinylated in the ELISA assays); assay: ELISA; antibody 0 nM
T2 construct: also called cyno PCSK9; Cyno Monkey PCSK9-His
T2 sequence (A8T666 31-692 limits assumed): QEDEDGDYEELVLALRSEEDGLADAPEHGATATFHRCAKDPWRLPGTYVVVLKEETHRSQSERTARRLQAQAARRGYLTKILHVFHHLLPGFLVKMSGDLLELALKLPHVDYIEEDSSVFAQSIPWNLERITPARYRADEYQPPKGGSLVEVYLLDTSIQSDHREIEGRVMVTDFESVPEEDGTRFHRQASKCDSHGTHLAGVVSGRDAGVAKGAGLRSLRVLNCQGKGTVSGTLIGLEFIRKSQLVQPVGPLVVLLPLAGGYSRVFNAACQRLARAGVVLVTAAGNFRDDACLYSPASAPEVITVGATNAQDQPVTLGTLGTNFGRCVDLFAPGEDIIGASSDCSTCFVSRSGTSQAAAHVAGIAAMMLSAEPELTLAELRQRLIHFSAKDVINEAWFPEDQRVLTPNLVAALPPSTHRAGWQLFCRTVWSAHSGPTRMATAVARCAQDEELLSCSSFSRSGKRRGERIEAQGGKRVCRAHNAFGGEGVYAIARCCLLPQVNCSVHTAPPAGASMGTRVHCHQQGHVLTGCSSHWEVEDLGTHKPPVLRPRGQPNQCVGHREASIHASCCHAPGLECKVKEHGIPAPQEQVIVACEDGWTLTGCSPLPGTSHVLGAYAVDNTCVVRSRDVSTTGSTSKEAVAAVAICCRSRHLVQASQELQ

[3] = biological target: T1, recombinant human PCSK9-His protein …; assay: ELISA; antibody 0.67 nM
[4] = biological target: T1, recombinant human PCSK9-His protein …; assay: ELISA; antibody 6.67 nM
[5] = biological target: T2, recombinant cyno monkey PCSK9 protein; assay: ELISA; antibody 0.67 nM
[6] = biological target: T2, recombinant cyno monkey PCSK9 protein; assay: ELISA; antibody 6.67 nM
[7] = biological target: T1, recombinant human PCSK9-His protein …; assay: ELISA; antibody 0.067 nM
[8] = biological target: T1, recombinant human PCSK9-His protein …; assay: ELISA; antibody 66.67 nM
[9] = biological target: T2, recombinant cyno monkey PCSK9 protein; assay: ELISA; antibody 0.067 nM
[10] = biological target: T2, recombinant cyno monkey PCSK9 protein; assay: ELISA; antibody 66.67 nM
[11] = biological target: T1, recombinant human PCSK9-His protein …; assay: ELISA; antibody 0.0067 nM
[12] = biological target: T2, recombinant cyno monkey PCSK9 protein; assay: ELISA; antibody 0.0067 nM
[13] = biological target: T1, recombinant human PCSK9-His protein …; assay: ELISA; antibody 0.00067 nM
[14] = biological target: T2, recombinant cyno monkey PCSK9 protein; assay: ELISA; antibody 0.00067 nM
[15] = biological target: T1, recombinant human PCSK9-His protein …; assay: ELISA; antibody 0.000067 nM
[16] = biological target: T2, recombinant cyno monkey PCSK9 protein; assay: ELISA; antibody 0.000067 nM
[17] = biological target: T1, recombinant human PCSK9-His protein …; assay: BLI, Octet Red 96; antibody on AHC sensor
Description: Dissociation constants were determined by Octed red 96 (Fortiebio). The detailed operation and methods were followed according to the specifications of the instrument provided by the manufacturer. Briefly, an AHC sensor (Anti-human Fc sensor, Fortiebio) was used for the affinity determination. The anti-PCSK9 antibody was diluted to 10 ug/mL in PBS buffer (pH7.4) containing 0.1% (w/w) BSA and 0.02% (v/v) Tween 20 and incubated with the AHC sensor. […] The reaction mixture was further incubated in PBS buffer (pH7.4) containing 0.1% (v/w) BSA and 0.02% (v/v) Tween 20 at 30° C. for 5 minutes.

[18] = biological target: T1, recombinant human PCSK9-His protein …; assay: ELISA of PCSK9 binding to LDLR ECD; antibody 0 nM
[19] = biological target: T1, recombinant human PCSK9-His protein …; assay: ELISA of PCSK9 binding to LDLR ECD; antibody 40 nM
[20] = biological target: T1, recombinant human PCSK9-His protein …; assay: ELISA of PCSK9 binding to LDLR ECD; antibody 1.6 nM
[21] = biological target: T1, recombinant human PCSK9-His protein …; assay: ELISA of PCSK9 binding to LDLR ECD; antibody 200 nM
[22] = biological target: T1, recombinant human PCSK9-His protein …; assay: ELISA of PCSK9 binding to LDLR ECD; antibody 0.01 nM
[23] = biological target: T1, recombinant human PCSK9-His protein …; assay: ELISA of PCSK9 binding to LDLR ECD; antibody 0.06 nM
[24] = biological target: T1, recombinant human PCSK9-His protein …; assay: ELISA of PCSK9 binding to LDLR ECD; antibody 0.32 nM
[25] = biological target: T1, recombinant human PCSK9-His protein …; assay: SPR, Biacore T200; antibody captured by anti-human Fc
Description: Anti-human Fc IgG was immobilized on flow cells 1 and 2: HBS-EP+(10 mM HEPES, 150 mM NaCl, 3 mM EDTA, 0.05% P20, pH 7.4) was used as running buffer, and the immobilization of anti-human Fc IgG was carried out using the immobilization wizard template. Flow cells 1 and 2 of a Series S CM5 sensor chip were activated with freshly-mixed 50 mmol/L NHS and 200 mmol/L EDC. 20 ug/mL of anti-human Fc IgG diluted in 10 mM NaAC (pH 4.5) was injected into the activated flow cells 1 and 2. The remaining active coupling sites were blocked with 1M ethanolamine.
KD measurements were carried out with HBS-EP+ as the running buffer. Each antibody was injected over the CM5 sensor flow cell 2 with a flow rate of 10 uL/min to reach response 230 RU. […] Buffer flow was maintained for 400 seconds for dissociation measurements (30 uL/min). To remove the tested antibody from the surface, 10 mM glycine-HCl pH 1.5 was injected for 20 seconds (30 ulJmin). Flow cell 1 was used as reference flow cell. […] The KD value for each antibody was evaluated using Biacore T200 evaluation software 1.0, and the data was fit with a 1:1 binding model.

B1: 76A1B11, fully human anti-PCSK9 antibody (antibody, human IgG1, V domains shown)
VH: QVQLVESGGGVVQPGRSLRLSCAATGFTFSIYGMHWVRQAPGKGLEWVAVIWYDGSNKYYADSVKGRFIISRDNSKNTLYLQMNSLRVEDTAVYYCVSDYFGSGNSYYYYGMDVWGQGTTVTVSS
VL: DIQMTQSPSSLSASVGDRVTITCRASQVISNYLAWYQQKPGKVPKLLIYTASTLQSGVPSRFSGSGSGADFTLTISSLQPEDVATYYCQKYNSAPYTFGQGTKLEIK
In the case of B1, the OD450 nm [1] is reported as 0.06 OD450 nm, the OD450 nm [2] is reported as 0.07 OD450 nm and the OD450 nm [3] is reported as 2.77 OD450 nm. The OD450 nm [4] was 2.97 OD450 nm, the OD450 nm [5] was 2.91 OD450 nm and the OD450 nm [6] was 3 OD450 nm. For the same binder, the OD450 nm [7] was 0.8 OD450 nm, the OD450 nm [8] was 2.97 OD450 nm and the OD450 nm [9] was 1.46 OD450 nm. For the same binder, the OD450 nm [10] was 3 OD450 nm, the OD450 nm [11] was 0.14 OD450 nm and the OD450 nm [12] was 0.24 OD450 nm. The OD450 nm [13] was 0.07 OD450 nm, the OD450 nm [14] was 0.08 OD450 nm and the OD450 nm [15] was 0.06 OD450 nm. It also gave an OD450 nm [16] of 0.11 OD450 nm, a Kd [17] of 12.1 nM and a koff [17] of 0.000643 s⁻¹. For the same binder, the kon [17] was 53100 M⁻¹ s⁻¹, the OD450 nm [18] was 2.38 OD450 nm and the OD450 nm [19] was 1.35 OD450 nm. For the same binder, the OD450 nm [20] was 2.19 OD450 nm, the OD450 nm [21] was 1.27 OD450 nm and the OD450 nm [22] was 2.26 OD450 nm. For the same binder, the OD450 nm [23] was 2.28 OD450 nm and the OD450 nm [24] was 2.31 OD450 nm.

B2: 103C11E8, fully human anti-PCSK9 antibody (antibody, human IgG1, V domains shown)
VH: QVQLQESGPGLVKPSGTLSLTCAVSGGSISSSNWWSWVRQPPGKGLEWIGEIYHSGSTNYNPSLKSRVTISVDKSKNQFSLKLSSVTAADTAVYYCARGIAVAGTDVMDAWGQGASVTVSS
VL: EIVLTQSPATLSLSPGERATLSCRASQSVSSYLVWYQQKSGQAPRLLIYGTSNRATGIPARFSGSGSGTDFTLTISSLEPEDFALYYCQQRGNWMYTFGQGTKLEIK
Work on B2 yielded a Kd [17] of 2.17 nM and a Kd [25] of 1.42 nM.
